Values belong to the binder of their own block, whether it stands above or below them.
How the values were obtained:
[1] = biological target: T1, PD-L1-His (human, UniProt Q9NZQ7); assay: competition ELISA: PD-L1-His pre-incubated with the antibody, then on coated PD-1-Fc (blocked ligand); % of max absorbance
T1 construct: recombinant, His-tagged; also called human PD-L1-His (S1479, Y-Biologics)

[2] = biological target: T2, PD-L1 on CHO cell line highly expressing PD-L1 (PD-1/PD-L1 blockade bioassay kit, promega J1250) (UniProt Q9NZQ7 19-290, limits assumed); assay: cell-based or functional assay
T2 sequence (Q9NZQ7 19-290 limits assumed): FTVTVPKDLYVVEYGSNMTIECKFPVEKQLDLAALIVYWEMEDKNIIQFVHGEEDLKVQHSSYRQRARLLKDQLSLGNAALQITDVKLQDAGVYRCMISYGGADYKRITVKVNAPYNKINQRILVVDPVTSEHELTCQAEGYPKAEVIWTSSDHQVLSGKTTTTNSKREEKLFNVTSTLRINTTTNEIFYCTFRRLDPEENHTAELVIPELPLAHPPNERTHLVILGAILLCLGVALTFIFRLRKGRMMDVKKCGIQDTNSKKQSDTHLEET

[3] = biological target: T3, human PD-L1 over-expressed on HEK293E cells (human, UniProt Q9NZQ7 19-290); assay: flow cytometry on HEK293E/PD-L1 cells, FITC anti-human IgG, serial dilutions; fit table
T3 construct: whole, on cells; also called human PD-L1 (NM_014143.2)
T3 sequence (Q9NZQ7 19-290): as the sequence (Q9NZQ7 19-290 limits assumed) above
Experimental: 0.5 to 1×10⁶ cells per sample were prepared from the transformation cell pools highly expressing human PD-L1, and antibodies were serially diluted at a constant dilution rate and reacted with the prepared cells at 4° C. for 20 minutes. Then, the cells were washed three times with PBS (#LB001-02, Welgene) containing 2% fetal bovine serum and reacted at 4° C. for 20 minutes with an anti-human IgG antibody (#FI-3000, Vectorlabs) conjugated with a FITC (fluorescein isothiocyanate) fluorescent substance. Then, the cells were subjected to the same washing process as above and then suspended in 0.5 ml of PBS containing 2% FBS (#26140-079, Thermo Fisher) with an FACSCanto II flow cytometer (BD Biosciences, USA) as a flow cytometer (Table 11).

[4] = biological target: T2, PD-L1 on CHO cell line highly …; assay: cell-based or functional assay; remark: listed apart in the source
[5] = biological target: T4, PD-L1-hFc (human, UniProt Q9NZQ7 19-238); assay: kinetics on PD-L1-hFc (legend paragraph 40; text names ProteOn XPR36, the sheet's sensorgrams have a nm axis)
T4 construct: extracellular domain; Made in HEK-293F cells, protein A purified; also called PD-L1 antigen; PD-L1 protein
T4 sequence (Q9NZQ7 other isoform, or with tags, fused parts or gaps limits assumed): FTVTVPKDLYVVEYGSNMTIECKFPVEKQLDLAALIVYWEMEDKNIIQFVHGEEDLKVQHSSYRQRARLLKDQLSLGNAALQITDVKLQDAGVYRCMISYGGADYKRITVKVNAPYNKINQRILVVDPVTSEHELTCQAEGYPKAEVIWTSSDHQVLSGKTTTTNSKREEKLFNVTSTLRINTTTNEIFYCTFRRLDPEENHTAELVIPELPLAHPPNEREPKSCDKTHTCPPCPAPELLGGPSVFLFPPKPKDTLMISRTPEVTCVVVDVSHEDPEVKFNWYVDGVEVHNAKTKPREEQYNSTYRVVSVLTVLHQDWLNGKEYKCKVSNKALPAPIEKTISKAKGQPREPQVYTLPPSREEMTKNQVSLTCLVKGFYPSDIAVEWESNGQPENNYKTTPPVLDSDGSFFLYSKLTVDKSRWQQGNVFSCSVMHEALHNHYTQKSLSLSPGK

[6] = biological target: T5, WT (human, UniProt Q9NZQ7); assay: ELISA on coated antigen, column WT
T5 construct: recombinant; also called hPD-L1; antigen PD-L1 wild type (WT)
T5 sequence (Q9NZQ7 19-238 limits assumed): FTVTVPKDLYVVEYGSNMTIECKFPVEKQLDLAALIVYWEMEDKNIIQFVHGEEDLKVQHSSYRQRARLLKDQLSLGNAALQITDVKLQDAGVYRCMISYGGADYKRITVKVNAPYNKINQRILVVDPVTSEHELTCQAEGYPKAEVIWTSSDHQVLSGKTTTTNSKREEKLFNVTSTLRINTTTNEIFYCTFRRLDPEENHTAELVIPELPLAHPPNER
Experimental: (§1) An antigen PD-L1 wild type (WT) or several mutants were coated at a density of 100 ng/well on a 96-well immunoplate at 4° C. for 16 hours and the wells were blocked with 4% skim milk dissolved in PBS. Each well was washed with 0.2 ml of PBS/T, and then a single clone scFv-phage (each […]) cultured for 16 hours was added in a dose of 100 μl to each well and reacted at room temperature for 2 hours. Again, each well was washed 4 times with 0.2 ml of PBS/T, and then the second antibody, anti-Fab, was diluted to 1/2000 and reacted at room temperature for 1 hour. After washing with 0.2 ml of PBS/T, color development was performed and absorbance was measured at 490 nm.

[7] = biological target: M2; assay: ELISA on coated antigen, column M2
Experimental: as §1

[8] = biological target: M4; assay: ELISA on coated antigen, column M4
Experimental: as §1

[9] = biological target: M1; assay: ELISA on coated antigen, column M1
Experimental: as §1

[10] = biological target: M5; assay: ELISA on coated antigen, column M5
Experimental: as §1

[11] = biological target: M8; assay: ELISA on coated antigen, column M8
Experimental: as §1

[12] = biological target: mouse PD-L1 protein (mouse, UniProt Q9EP73 19-238, limits assumed); assay: ELISA on coated antigen, column mPD-L1
Sequence of mouse PD-L1 protein (Q9EP73 19-238 limits assumed): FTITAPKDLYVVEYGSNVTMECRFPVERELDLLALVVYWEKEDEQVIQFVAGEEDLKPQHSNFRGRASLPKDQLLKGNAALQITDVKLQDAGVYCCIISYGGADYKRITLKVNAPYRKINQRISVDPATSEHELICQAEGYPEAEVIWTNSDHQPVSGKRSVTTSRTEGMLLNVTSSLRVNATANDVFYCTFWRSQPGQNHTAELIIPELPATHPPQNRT
Experimental: as §1

[13] = biological target: T6, ITGA6; assay: ELISA on coated antigen, column ITGA6
T6 construct: unrelated antigen column; all antibodies give 0.5 to 0.6
T6 sequence (P23229 whole entry, species assumed, looked up): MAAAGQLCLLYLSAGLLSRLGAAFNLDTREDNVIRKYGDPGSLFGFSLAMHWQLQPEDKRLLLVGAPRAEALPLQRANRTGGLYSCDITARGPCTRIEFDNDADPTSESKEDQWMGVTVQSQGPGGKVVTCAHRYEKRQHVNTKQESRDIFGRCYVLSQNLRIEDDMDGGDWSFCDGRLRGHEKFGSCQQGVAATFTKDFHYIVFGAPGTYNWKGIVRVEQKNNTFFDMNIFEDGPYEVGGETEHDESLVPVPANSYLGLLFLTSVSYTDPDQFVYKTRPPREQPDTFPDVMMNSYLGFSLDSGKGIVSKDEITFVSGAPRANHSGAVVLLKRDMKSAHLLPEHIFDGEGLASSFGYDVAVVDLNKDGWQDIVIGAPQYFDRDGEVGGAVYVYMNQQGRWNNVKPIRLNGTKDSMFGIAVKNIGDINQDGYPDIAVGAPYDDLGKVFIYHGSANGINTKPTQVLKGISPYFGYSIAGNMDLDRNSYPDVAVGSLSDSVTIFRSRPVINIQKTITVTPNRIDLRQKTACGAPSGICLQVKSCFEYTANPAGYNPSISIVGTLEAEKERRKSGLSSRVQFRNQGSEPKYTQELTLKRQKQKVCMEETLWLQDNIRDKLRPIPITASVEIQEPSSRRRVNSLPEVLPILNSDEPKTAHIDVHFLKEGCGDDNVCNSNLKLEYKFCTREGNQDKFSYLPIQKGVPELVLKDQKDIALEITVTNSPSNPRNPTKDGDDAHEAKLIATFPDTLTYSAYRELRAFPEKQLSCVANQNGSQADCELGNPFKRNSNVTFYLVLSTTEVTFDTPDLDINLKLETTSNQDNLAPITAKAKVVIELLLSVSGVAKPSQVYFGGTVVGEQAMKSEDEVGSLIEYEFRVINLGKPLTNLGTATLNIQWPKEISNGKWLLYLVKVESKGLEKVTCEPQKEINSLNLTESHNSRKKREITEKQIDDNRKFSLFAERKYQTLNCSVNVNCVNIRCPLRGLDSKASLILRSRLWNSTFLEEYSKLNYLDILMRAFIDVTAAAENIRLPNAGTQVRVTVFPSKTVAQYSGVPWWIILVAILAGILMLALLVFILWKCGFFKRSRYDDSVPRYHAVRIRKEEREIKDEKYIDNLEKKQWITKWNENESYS

[14] = biological target: M7; assay: ELISA on coated antigen, column M7
[15] = biological target: M6; assay: ELISA on coated antigen, column M6
Experimental: as §1

[16] = biological target: M3; assay: ELISA on coated antigen, column M3

T1 sequence (Q9NZQ7 19-238 limits assumed): as the sequence (Q9NZQ7 19-238 limits assumed) above

IC50 [1]: 9.11 nM
Average *EC50 [nM], PD-1/PD-L1 blockade bioassay [2]: 0.96 nM
B1: PD-L1-16E12 (WT/Lambda) (antibody, V domains shown)
VH: QMQLVQSGAEVKKPGSSVKVSCKASGGTFSSYAISWVRQAPGQGLEWMGRIIPILGIANYAQKFQGRVTITADKSTSTAYMELSSLRSEDTAVYYCAKPRDGYNLVAFDIWGQGTMVTVSS
VL: QLVLTQPPSVSGAPGQTVTISCTGSSSNIGAGYDVHWYQQLPGTAPKLLIYGNNNRPSGVPDRFSGSKSGALASLAITGLQAEDGADYHCQSYDNSLSAHAVFGTGTKVTVL

IC50 [1]: 6.86 nM
Average *EC50 [nM], PD-1/PD-L1 blockade bioassay [2]: 0.25 nM
B2: PD-L1-16E12-LS-4F5 (Lambda) (antibody, V domains shown)
VH: QMQLVQSGAEVKKPGSSVKVSCKASGGTFSSYAISWVRQAPGQGLEWMGRIIPILGIANYAQKFQGRVTITADKSTSTAYMELSSLRSEDTAVYYCAKPRDGYNLVAFDIWGQGTMVTVSS
VL: QLVLTQPPSVSGAPGQRVTISCTGSSSNIGAGYDVHWYQQLPGAAPKLLIYGDINRPSGVPDRFSGSKSGISASLAITGLQAEDEADYYCQSYDSSLSGGVFGGGTKLTVL

Bmax [3]: 4140
Kd [3]: 4 nM
EC50 (column 1차 EC50 [nM], first run; row 16E12, curve legend 16E12_Kappa) [4]: 0.41 nM
EC50 (column 2차 EC50 [nM], second run; row 16E12, curve legend 16E12_Kappa) [4]: 0.45 nM
IC50 [1]: 7.88 nM
Kd [5]: 0.0149 nM
kon [5]: 268000 M⁻¹ s⁻¹
Average *EC50 [nM], PD-1/PD-L1 blockade bioassay [2]: 0.47 nM
B3: PD-L1-16E12 (WT/kappa) (antibody, V domains shown)
VH: QMQLVQSGAEVKKPGSSVKVSCKASGGTFSSYAISWVRQAPGQGLEWMGRIIPILGIANYAQKFQGRVTITADKSTSTAYMELSSLRSEDTAVYYCAKPRDGYNLVAFDIWGQGTMVTVSS
VL: QLVLTQPPSVSGAPGQTVTISCTGSSSNIGAGYDVHWYQQLPGTAPKLLIYGNNNRPSGVPDRFSGSKSGALASLAITGLQAEDGADYHCQSYDNSLSAHAVFGTGTKVTVL
notes: also called PD-L1-16E12-Kappa

absorbance at 490 nm [6]: 2.5
absorbance at 490 nm [7]: 2.3
absorbance at 490 nm [8]: 2.4
absorbance at 490 nm [9]: 2.5
absorbance at 490 nm [10]: 2.5
absorbance at 490 nm [11]: 0.4
absorbance at 490 nm [12]: 0.1
binding result [12]: no binding
absorbance at 490 nm [13]: 0.5
absorbance at 490 nm [14]: 2.5
absorbance at 490 nm [15]: 2.5
Average *EC50 [nM], PD-1/PD-L1 blockade bioassay [2]: 3.25 nM
absorbance at 490 nm [16]: 0.8
B4: PDL1-11A7 (antibody, V domains shown)
VH: QVQLVQSGAEVKKPGASVKVSCKVSGYTLTELSMHWVRQAPGKGLEWMGGFDPEDGETIYAQKFQGRVTMTEDTSTDTAYMELSSLRSEDTAVYYCARDPWGGYYGMDVWGQGTTVTVSS
VL: DIQMTQSPSSVSASVGDRVTINCRASQGIRTWLAWYQQKPGKAPKLLIYAASNLQSGVPSRFSGSGSGTDFTLTIASLQPEDFATYYCQQANSFPLTFGGGTKVEIK
notes: Only FR/CDR pieces are tied to the clone

Reference: patent US20190322750A1 (Y BIOLOGICS, published 2019)
